This is an account of results in US20060019342A1 (AstraZeneca / MedImmune, published 2006).

The kon is the rate constant with which the complex forms. A higher kon goes with faster complex formation. A word on the Kd: it is the concentration at which binding is half-saturated. Lower therefore signals a tighter complex. By koff is commonly meant the first-order rate constant of dissociation. A high value points to fast dissociation.

Changes are numbered by the printed parent chain. Names may count otherwise.

In assay [1] the target is T1, EphA2-Fc (UniProt P29317 25-534, limits assumed).
T1 construct: Amine-coupled to a CM5 chip; not shown: Fc part
T1 sequence (P29317 25-534 limits assumed): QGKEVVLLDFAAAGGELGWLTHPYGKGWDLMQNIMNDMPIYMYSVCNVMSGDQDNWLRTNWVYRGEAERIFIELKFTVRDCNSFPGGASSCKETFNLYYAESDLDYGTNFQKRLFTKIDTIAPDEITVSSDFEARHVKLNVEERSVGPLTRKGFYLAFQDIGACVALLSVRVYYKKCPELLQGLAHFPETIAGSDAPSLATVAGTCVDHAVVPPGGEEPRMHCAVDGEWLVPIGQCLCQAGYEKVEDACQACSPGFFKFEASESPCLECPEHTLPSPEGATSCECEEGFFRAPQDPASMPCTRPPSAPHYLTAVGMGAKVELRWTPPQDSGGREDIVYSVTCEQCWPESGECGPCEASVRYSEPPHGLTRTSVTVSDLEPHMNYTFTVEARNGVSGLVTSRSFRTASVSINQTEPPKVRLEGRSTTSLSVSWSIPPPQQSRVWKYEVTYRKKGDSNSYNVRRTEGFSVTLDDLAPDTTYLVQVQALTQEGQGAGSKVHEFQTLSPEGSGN
Put plainly: SPR (BIAcore 3000), EphA2-Fc immobilized on CM5 chip, soluble IgG, 1:1 Langmuir fit. As to the method:
(§1) The interaction of soluble 12G3, 4C10, 12G3/Mut and 4C10/Mut with immobilized EphA2-Fc was monitored by surface plasmon resonance detection using a BIAcore 3000 instrument (Pharmacia Biosensor, Uppsala, Sweden). EphA2-Fc was coupled to the dextran matrix of a CM5 sensor chip (Pharmacia Biosensor) using an Amine Coupling Kit as described (Johnsson et al. supra) at a surface density of 162 RU. IgGs were diluted in 0.01 M HEPES pH 7.4 containing 0.15 M NaCl, 3 mM EDTA and 0.005% P20. All subsequent dilutions were made in the same buffer. All binding experiments were performed at 25° C. with IgG concentrations typically ranging from 100 nM to 0.2 nM at a flow rate of 75 μL/min; data were collected for approximately 20 min and one 1-min pulse of 1M NaCl, 50 mM NaOH was used to regenerate the surfaces. IgGs were also flowed over an uncoated cell and the sensorgrams from these blank runs subtracted from those obtained with EphA2-Fc-coupled chips. Data were fitted to a 1:1 Langmuir binding model. This algorithm calculates both the kₒₙ and the koff, from which the apparent equilibrium dissociation constant, KD, is deduced as the ratio of the two rate constants (koff/kₒₙ).

Assay [2] has as its target T1, EphA2-Fc. The assay can be described thus: SPR (BIAcore 3000), EphA2-Fc immobilized on CM5 chip, soluble IgG, 1:1 Langmuir fit; below the limit of detection. How it is done:
as §1

B1: 12G3/M, heavy chain modified 12G3 (S60A/A61D, Kabat) (antibody, human IgG1, V domains shown)
VH: QMQLVQSGPEVKKPGTSVKVSCKASGFTFDDYSMNWVRQARGQRLEWIGFIRNKANDYTTEYADSVKGRVTITRDMSTSTAYMELSSLRSEDTAVYYCARYPRHHAMDSWGQGTSVTVSS
VL: DIQMTQSPSSLSASVGDRVTITCRASQSISNNLHWYQQKPGKAPKLLIKYAFQSISGVPSRFSGSGSGTDFTFTISSLQPEDFATYYCQQANSWPLTFGGGTKVEIK
notes: The light chain is unaltered; Human IgG1 / kappa; also called 12G3/Mut
For the molecule B1, the kon with EphA2-Fc [1] worked out at 187000 M⁻¹ s⁻¹. For the same molecule, in the assay with EphA2-Fc [2], the Kd was < 0.027 nM and the koff was < 5e-06 s⁻¹.

B2: 12G3 humanized anti-EphA2 monoclonal antibody (antibody, human IgG1, V domains shown)
VH: B1 VH with A63S, D64A
VL: B1 VL
notes: Expressed as soluble human IgG1 (human gamma 1, human kappa)
In the assay with EphA2-Fc [1], B2 gave a Kd of 0.034 nM, a koff of 8.49e-06 s⁻¹ and a kon of 246000 M⁻¹ s⁻¹.

B3: 4C10/M, heavy chain modified 4C10 (S60A/A61D, Kabat) (antibody, human IgG1, V domains shown)
VH: B1 VH with N35T, D57A
VL: B1 VL with A91S
notes: The light chain is unaltered; Human IgG1 / kappa; also called 4C10/Mut
For the molecule B3, in the assay with EphA2-Fc [1], the Kd is 0.093 nM, the koff was 5.96e-06 s⁻¹ and the kon was 64100 M⁻¹ s⁻¹.

B4: 4C10 humanized anti-EphA2 monoclonal antibody (antibody, human IgG1, V domains shown)
VH: B1 VH with N35T, D57A, A63S, D64A
VL: B1 VL with A91S
notes: Expressed in HEK 293 cells as soluble human IgG1 (human gamma 1 heavy chain, human kappa light chain)
B4: in the assay with EphA2-Fc [1], the Kd was 0.095 nM, the koff came to 9.75e-06 s⁻¹ and the kon stood at 102000 M⁻¹ s⁻¹.
